Laboratory results: patent US12215130 (dated 2025)
Read-outs that look alike come from different tables or passages of the source.

T1: Cynomolgus monkey serum albumin (cynomolgus monkey)
T1 chain: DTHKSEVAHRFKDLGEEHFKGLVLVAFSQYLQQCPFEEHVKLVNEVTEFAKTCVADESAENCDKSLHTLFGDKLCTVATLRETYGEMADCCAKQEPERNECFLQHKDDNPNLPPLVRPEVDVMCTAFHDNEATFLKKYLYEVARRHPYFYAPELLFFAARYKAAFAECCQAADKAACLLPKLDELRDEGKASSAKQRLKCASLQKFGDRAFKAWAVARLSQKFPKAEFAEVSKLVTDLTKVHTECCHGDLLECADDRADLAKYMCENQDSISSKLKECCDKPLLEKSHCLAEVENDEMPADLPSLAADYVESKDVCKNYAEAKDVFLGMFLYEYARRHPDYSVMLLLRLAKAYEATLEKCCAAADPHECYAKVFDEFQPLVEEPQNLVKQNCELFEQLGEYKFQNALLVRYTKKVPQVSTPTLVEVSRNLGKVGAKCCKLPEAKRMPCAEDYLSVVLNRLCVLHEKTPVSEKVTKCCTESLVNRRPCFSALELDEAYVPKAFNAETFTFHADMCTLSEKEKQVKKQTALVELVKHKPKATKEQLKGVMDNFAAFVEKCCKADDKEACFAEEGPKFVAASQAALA

B1: AWT-P610 (designed binder)
chain: QVQLVESGGGVVQPGGSLRLSCAASGFAFRGFGMSWVRQAPGKGLEWVSSINNGGSDTYYADSVKGRFTISRDNSKNTLYLQMNSLRAEDTAVYYCAIGGPGASPSGQGTQVTVSS
B2: AWT-P367 (antibody, V domains shown)
VH: QVQLVESGGGLVQPGGSLRLSCAASGSTWSINTLAWYRQAPGKQRDLVARISSGGSTHYADSVKGRFTVSRDNAENTLVLQMNSLKPEDTAVYYCYAQSTWYPPSWGQGTQVTVSS

Columns and labels:
[1] = target: T1, Cynomolgus monkey serum albumin; test: BLI, pH 5.5
Human serum albumin [2] = target: Human serum albumin (human); test: BLI, pH 7.4
Human serum albumin [3] = target: Human serum albumin (human); test: BLI, pH 5.5
[4] = target: T1, Cynomolgus monkey serum albumin; test: BLI, pH 7.4
Human serum albumin [5] = target: Human serum albumin (human)

Binder | Kd [1] [nM] | Kd (Human serum albumin [2]) [nM] | Kd (Human serum albumin [3]) [nM] | Kd [4] [nM] | Kd (Human serum albumin [5]) [nM]
B1 | 47.1 | 43 | 39.8 | 49.6 | –
B2 | 20.5 | 29.6 | 9.6 | 18.9 | –
LAEAKVLANRELDKYGVSDYYKNLINNAKTVEGVKALIDEILAALP [G148-ABD-wt] | – | – | – | – | ~1.2
